Results on 1 substance are retold here after patent US20150020221A1.

This assay addresses PARP1 (endogenous, Hela cell lysate) (human) (UniProt P09874). Put plainly: scanning densitometry of PARP1 immunoprecipitates from Hela cells (FIG. 4B).

Sequence of PARP1 (endogenous, Hela cell lysate) (human) (P09874 2-1014 limits assumed): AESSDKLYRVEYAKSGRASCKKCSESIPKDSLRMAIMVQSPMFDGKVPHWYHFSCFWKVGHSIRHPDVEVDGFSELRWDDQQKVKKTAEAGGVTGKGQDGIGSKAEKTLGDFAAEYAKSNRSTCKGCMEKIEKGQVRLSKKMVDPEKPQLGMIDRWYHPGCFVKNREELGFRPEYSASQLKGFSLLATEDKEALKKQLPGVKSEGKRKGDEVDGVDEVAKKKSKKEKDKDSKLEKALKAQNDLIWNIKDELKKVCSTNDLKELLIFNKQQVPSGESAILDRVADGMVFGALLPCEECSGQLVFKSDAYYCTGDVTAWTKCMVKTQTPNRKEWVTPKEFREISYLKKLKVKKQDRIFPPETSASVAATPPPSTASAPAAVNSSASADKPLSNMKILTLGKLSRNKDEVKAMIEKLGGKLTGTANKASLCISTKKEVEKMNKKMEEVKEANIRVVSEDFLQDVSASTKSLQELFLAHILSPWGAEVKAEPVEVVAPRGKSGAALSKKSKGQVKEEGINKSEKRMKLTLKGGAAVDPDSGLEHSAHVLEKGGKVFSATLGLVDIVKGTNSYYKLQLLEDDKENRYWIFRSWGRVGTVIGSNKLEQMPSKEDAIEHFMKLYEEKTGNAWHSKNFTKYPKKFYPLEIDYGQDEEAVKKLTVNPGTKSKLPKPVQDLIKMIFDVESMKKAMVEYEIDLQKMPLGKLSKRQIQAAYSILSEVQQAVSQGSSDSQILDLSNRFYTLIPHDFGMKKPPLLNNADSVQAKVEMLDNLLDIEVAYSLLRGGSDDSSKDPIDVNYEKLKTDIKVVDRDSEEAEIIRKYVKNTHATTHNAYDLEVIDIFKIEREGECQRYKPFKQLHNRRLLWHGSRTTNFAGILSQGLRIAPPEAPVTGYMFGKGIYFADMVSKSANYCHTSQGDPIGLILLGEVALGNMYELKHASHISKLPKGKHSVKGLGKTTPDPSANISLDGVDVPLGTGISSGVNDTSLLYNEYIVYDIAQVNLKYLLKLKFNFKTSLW

In turn, “BAL1 (endogenous, Hela cell lysate) (from UniProt Q8IXQ6 1-854)” had a fold increase co-immunoprecipitated with PARP1 (Dox-treated versus untreated cells) of 4.8 fold.
